Results taken from the supplement of paper PMC10567573.

B1: HSP90AB1 (parent)
chain: TLRQKAEADKNDKAVKDLVVLLFE

Variants of: B1
Experiment: protein stability index of a GFP-peptide fusion (GPS, HEK-293T) (PSI 1-6); higher = more stable
Details: c terminus: a fixed tail appended
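Note: lentivirally expressed fusions sorted by FACS into six bins by GFP to DsRed ratio, PSI derived from sequencing read proportions per bin multiplied by bin number.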

First: R3E
Second: R3K
The protein stability index of the first is lower: 3.17 for the first, 3.36 for the second.

R3L and R3Q are the same in protein stability index: 3.11 for the first, 3.11 for the second.

First: R3G
Second: R3T
The protein stability index of the first is lower: 2.72 for the first, 3.59 for the second.

Going from R3A to R3I, the protein stability index falls from 3.46 to 3.18.

Going from R3D to R3C, the protein stability index falls from 3.57 to 2.75.

Compared with R3Y, R3H is higher in protein stability index: 2.35 for the first, 2.84 for the second.

First: R3W
Second: R3N
The protein stability index of the first is lower: 2.6 for the first, 3.1 for the second.

Compared with R3S, R3F is lower in protein stability index: 3.58 for the first, 2.8 for the second.

Compared with N11R, N11A is lower in protein stability index: 3.15 for the first, 3 for the second.

Going from N11M to N11L, the protein stability index falls from 3.11 to 2.83.

First: N11Q
Second: N11T
The protein stability index of the first is lower: 2.62 for the first, 3.37 for the second.

First: N11C
Second: N11E
The protein stability index of the first is lower: 2.88 for the first, 3.21 for the second.

Compared with N11P, N11D is higher in protein stability index: 2.58 for the first, 2.84 for the second.

First: N11S
Second: N11F
The protein stability index of the first is lower: 2.95 for the first, 3.09 for the second.

First: N11I
Second: N11G
The protein stability index of the first is lower: 2.98 for the first, 3.13 for the second.

Going from N11V to N11K, the protein stability index falls from 2.89 to 2.43.

Going from D12E to D12A, the protein stability index falls from 2.95 to 2.44.

Going from D12L to D12H, the protein stability index falls from 2.73 to 2.56.

First: D12G
Second: D12F
The protein stability index of the first is higher: 2.48 for the first, 2.24 for the second.

Going from D12K to D12C, the protein stability index rises from 1.99 to 2.59.

Going from D12N to D12I, the protein stability index falls from 2.62 to 2.

Going from A6T to A6K, the protein stability index falls from 2.85 to 2.71.

Compared with A6P, A6G is lower in protein stability index: 3.29 for the first, 2.72 for the second.

First: A6Q
Second: A6N
The protein stability index of the first is higher: 2.68 for the first, 2.61 for the second.

Compared with A6C, A6W is higher in protein stability index: 2.91 for the first, 3.32 for the second.

Compared with A6F, A6I is higher in protein stability index: 2.74 for the first, 3.35 for the second.

First: A6D
Second: A6R
The protein stability index of the first is higher: 3.41 for the first, 2.69 for the second.

Going from A6M to A6E, the protein stability index rises from 2.93 to 3.33.

Going from Q4D to Q4G, the protein stability index falls from 3.32 to 3.06.

Going from Q4H to Q4A, the protein stability index rises from 2.37 to 2.63.

Compared with Q4Y, Q4M is higher in protein stability index: 2.37 for the first, 2.48 for the second.

Compared with Q4W, Q4R is lower in protein stability index: 2.71 for the first, 2.26 for the second.

Compared with Q4P, Q4I is lower in protein stability index: 3.06 for the first, 2.41 for the second.

Compared with Q4N, Q4K is higher in protein stability index: 2.71 for the first, 3.26 for the second.

First: Q4F
Second: Q4C
The protein stability index of the first is higher: 2.58 for the first, 2.51 for the second.

Going from Q4E to Q4S, the protein stability index falls from 3.39 to 3.21.

First: A8R
Second: A8F
The protein stability index of the first is lower: 2.87 for the first, 2.89 for the second.

First: A8V
Second: A8N
The protein stability index of the first is lower: 3.27 for the first, 3.35 for the second.

Going from A8P to A8L, the protein stability index rises from 2.21 to 2.38.

First: A8Q
Second: A8E
The protein stability index of the first is higher: 3.24 for the first, 3.16 for the second.

Going from A8G to A8H, the protein stability index falls from 3.9 to 2.85.

Compared with A8W, A8D is higher in protein stability index: 3.03 for the first, 3.57 for the second.

Going from A8C to L2G, the protein stability index rises from 2.87 to 3.13.

Compared with L2P, L2W is lower in protein stability index: 3.23 for the first, 2.43 for the second.

First: L2C
Second: L2K
The protein stability index of the first is higher: 3.12 for the first, 2.26 for the second.

First: L2N
Second: L2F
The protein stability index of the first is higher: 2.79 for the first, 2.65 for the second.

First: L2D
Second: L2S
The protein stability index of the first is higher: 3.13 for the first, 3.05 for the second.

Going from L2E to L2V, the protein stability index rises from 3.01 to 3.15.

Compared with L2I, L2Q is higher in protein stability index: 3.16 for the first, 3.62 for the second.

First: L2R
Second: L2Y
The protein stability index of the first is lower: 2.56 for the first, 2.64 for the second.

Compared with L2M, K10M is lower in protein stability index: 2.95 for the first, 2.65 for the second.

First: K10H
Second: K10N
The protein stability index of the first is lower: 2.69 for the first, 2.98 for the second.

Going from K10E to K10I, the protein stability index rises from 2.73 to 3.06.

Compared with K10P, K10A is lower in protein stability index: 3.68 for the first, 3.44 for the second.

First: K10S
Second: K10T
The protein stability index of the first is higher: 3.56 for the first, 2.92 for the second.

Going from K10D to K10L, the protein stability index falls from 3.11 to 2.61.

Going from K10R to K10F, the protein stability index falls from 3.29 to 2.53.

Going from K10G to K10Q, the protein stability index rises from 2.63 to 2.98.

Compared with K10W, K10V is higher in protein stability index: 2.52 for the first, 2.57 for the second.

Compared with K5E, K5F is lower in protein stability index: 3.38 for the first, 2.75 for the second.

Compared with K5Y, K5C is lower in protein stability index: 3.26 for the first, 2.85 for the second.

Going from K5R to K5M, the protein stability index rises from 3 to 3.48.

Going from K5I to K5T, the protein stability index rises from 3.03 to 3.15.

Compared with K5D, K5Q is higher in protein stability index: 3.88 for the first, 4.01 for the second.

Compared with K5V, K5S is higher in protein stability index: 3.24 for the first, 3.36 for the second.

Going from K5G to K5H, the protein stability index falls from 3.87 to 3.01.

First: K5A
Second: K5L
The protein stability index of the first is higher: 3.12 for the first, 3.1 for the second.

Compared with D9K, D9S is higher in protein stability index: 2.51 for the first, 2.92 for the second.

Going from D9H to D9P, the protein stability index falls from 2.95 to 2.48.

Compared with D9Y, D9C is lower in protein stability index: 2.87 for the first, 2.73 for the second.

Compared with D9E, D9F is lower in protein stability index: 2.74 for the first, 2.52 for the second.

Compared with D9A, D9T is lower in protein stability index: 2.98 for the first, 2.35 for the second.

Compared with D9N, D9I is lower in protein stability index: 2.51 for the first, 2.26 for the second.

Going from D9Q to D9G, the protein stability index falls from 3.23 to 3.17.

Compared with D9V, T1Y is higher in protein stability index: 2.38 for the first, 2.63 for the second.

Going from T1W to E7D, the protein stability index rises from 2.51 to 2.79.

First: E7N
Second: E7C
The protein stability index of the first is higher: 2.72 for the first, 2.28 for the second.

Compared with E7A, E7M is lower in protein stability index: 2.67 for the first, 2.48 for the second.

Going from E7Q to E7V, the protein stability index rises from 1.9 to 2.63.

Going from E7Y to E7I, the protein stability index rises from 1.79 to 2.63.

Going from E7L to E7R, the protein stability index falls from 2.54 to 2.29.

Going from E7K to E7W, the protein stability index falls from 2 to 1.81.

Going from E7P to E7S, the protein stability index rises from 2.58 to 2.67.

With E7G the protein stability index was 2.24.
